Experiments:
Assay in all cases: Kinase Profiling Assay
Format in all cases: biochemical
Conditions in all cases: 100 μM
DDR2(h) = biological target: T1, DDR2(h) (Homo sapiens, UniProt Q16832)
T1 sequence (Q16832 22-855): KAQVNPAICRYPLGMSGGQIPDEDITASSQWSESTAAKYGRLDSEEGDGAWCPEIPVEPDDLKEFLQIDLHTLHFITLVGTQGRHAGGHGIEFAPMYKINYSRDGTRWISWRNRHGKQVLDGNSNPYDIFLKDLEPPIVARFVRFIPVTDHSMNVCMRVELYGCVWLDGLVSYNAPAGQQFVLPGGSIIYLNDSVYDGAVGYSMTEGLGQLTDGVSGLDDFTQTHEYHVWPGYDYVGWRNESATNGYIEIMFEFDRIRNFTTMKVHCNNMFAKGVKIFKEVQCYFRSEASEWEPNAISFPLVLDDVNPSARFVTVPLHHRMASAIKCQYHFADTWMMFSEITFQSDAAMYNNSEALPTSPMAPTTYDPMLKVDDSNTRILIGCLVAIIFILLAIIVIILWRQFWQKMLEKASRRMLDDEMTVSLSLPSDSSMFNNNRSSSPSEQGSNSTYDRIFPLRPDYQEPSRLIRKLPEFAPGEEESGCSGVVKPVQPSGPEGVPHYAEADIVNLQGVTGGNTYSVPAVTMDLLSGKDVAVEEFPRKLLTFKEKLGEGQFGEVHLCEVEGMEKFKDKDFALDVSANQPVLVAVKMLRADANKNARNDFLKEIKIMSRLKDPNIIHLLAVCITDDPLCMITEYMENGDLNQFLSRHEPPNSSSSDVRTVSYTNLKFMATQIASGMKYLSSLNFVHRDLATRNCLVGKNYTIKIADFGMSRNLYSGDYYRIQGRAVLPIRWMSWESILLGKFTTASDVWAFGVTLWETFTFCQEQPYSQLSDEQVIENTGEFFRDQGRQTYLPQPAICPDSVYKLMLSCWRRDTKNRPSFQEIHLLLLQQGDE

MEK1(h) = MEK1(h) (Homo sapiens, UniProt Q02750)
CHK1(h) = biological target: T2, CHK1(h) (Homo sapiens, UniProt O14757)
T2 sequence (O14757 1-476): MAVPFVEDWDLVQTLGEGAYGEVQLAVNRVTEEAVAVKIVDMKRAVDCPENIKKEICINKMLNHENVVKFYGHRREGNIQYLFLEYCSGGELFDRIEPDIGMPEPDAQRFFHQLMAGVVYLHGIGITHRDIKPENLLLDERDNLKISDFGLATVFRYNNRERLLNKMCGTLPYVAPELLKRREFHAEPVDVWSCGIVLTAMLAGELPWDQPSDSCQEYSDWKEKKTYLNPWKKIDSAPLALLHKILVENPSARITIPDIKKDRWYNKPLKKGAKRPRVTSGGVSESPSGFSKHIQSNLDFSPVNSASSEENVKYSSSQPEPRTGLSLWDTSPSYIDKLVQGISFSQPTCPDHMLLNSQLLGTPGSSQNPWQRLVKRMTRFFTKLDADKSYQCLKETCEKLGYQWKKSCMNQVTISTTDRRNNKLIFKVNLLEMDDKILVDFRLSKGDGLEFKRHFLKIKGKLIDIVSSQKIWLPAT

IGF-1R(h) = IGF-1R(h) (Homo sapiens, UniProt P08069)

Row | Sequence | % activity (DDR2(h)) [%] | % activity (MEK1(h)) [%] | % activity (CHK1(h)) [%] | % activity (IGF-1R(h)) [%]
1 | HRRIKAWLKKIKALARQLGVAA (Mammalian) [MMI-0500] | 79 | 21 | 65 | –
2 | YARAAARQARAKALNRQLGVA (Mammalian) [MMI-0200] | – | – | – | 49

From US10087225B2, “Formulation of MK2 inhibitor peptides” (MOERAE MATRIX, INC., priority 2015, dated 2018)
